Experimental data reported in patent US20230174596A1 (published 2023).
Numbering of substitutions follows the chain as printed. Names and notes keep the numbering of the source. Where two headings read alike, the source gives them in different places.

How the values were obtained:
[1] = biological target: LRP6 E1E2 protein (human) (UniProt O75581); experiment: spot phage ELISA
human VEGF-A = biological target: T1, human VEGF-A (human, UniProt P15692-4 34-135, limits assumed); experiment: cell-based or functional assay
T1 sequence (looked up): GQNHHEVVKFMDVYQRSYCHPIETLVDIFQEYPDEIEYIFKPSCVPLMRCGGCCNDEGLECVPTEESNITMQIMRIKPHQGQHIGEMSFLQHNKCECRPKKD

rat VEGF-A = biological target: T2, rat VEGF-A (rat, UniProt P16612-2 27-190, limits assumed); experiment: cell-based or functional assay
T2 sequence (looked up): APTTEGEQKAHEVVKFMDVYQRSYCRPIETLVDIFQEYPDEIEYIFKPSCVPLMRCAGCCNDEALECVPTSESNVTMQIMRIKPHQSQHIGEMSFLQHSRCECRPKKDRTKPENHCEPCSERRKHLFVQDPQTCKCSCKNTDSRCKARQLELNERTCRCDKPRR

mVEGF = biological target: T3, mVEGF (mouse, UniProt Q00731-2 27-190, limits assumed); experiment: cell-based or functional assay
T3 sequence (looked up): T2 sequence (looked up) with A10S, V14I, V75I

hVEGF-A (8-109) = biological target: T4, hVEGF-A (8-109) (human, UniProt P15692 214-315); experiment: spot phage ELISA
T4 construct: residue numbers count on mature VEGF-A; dimer
T4 sequence (looked up): T1 sequence (looked up)

Sequence of LRP6 E1E2 protein (human) (O75581 20-630 limits assumed): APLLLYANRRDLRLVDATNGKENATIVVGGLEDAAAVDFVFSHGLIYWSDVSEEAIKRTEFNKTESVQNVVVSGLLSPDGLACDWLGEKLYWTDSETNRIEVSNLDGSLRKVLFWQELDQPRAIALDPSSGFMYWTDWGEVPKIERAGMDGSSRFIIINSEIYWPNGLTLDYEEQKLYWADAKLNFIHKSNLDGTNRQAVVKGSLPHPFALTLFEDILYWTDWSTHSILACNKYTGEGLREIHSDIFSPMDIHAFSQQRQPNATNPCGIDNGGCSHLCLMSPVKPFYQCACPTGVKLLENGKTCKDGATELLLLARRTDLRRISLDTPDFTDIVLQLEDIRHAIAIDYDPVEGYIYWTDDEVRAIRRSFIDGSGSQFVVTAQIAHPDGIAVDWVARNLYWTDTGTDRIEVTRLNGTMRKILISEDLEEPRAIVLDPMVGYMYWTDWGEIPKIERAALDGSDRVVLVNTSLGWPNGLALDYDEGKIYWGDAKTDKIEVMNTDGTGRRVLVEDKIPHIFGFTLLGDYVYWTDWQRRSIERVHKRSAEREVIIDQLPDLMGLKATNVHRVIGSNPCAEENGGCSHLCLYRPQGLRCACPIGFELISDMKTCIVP

GCVNKIKGCKQDSDCLAGCVCGVEGRCG (designed binder) [LRP6_CKP5] was tested, and the ELISA [1] was 3.04 and the S/N [1] was 35.7.

For GCRNSIKRCKQNSDCLAGCVCSVGHGCG (designed binder) [LRP6_CKP6], the S/N [1] was 37.4.

GCANRVKRTSCKQDSDCLAGCVCGPNGFCG (designed binder) [LRP6_CKP22] gave an ELISA [1] of 3.43 and a S/N [1] of 42.9.

In the case of GCPTTRFKQYCKQDSDCLAGCVCGPNGFCG (designed binder) [VEGF_CKP6], the “Cellular Assay IC50, hVEGF-A (25 ng/ml)” value (human VEGF-A) is reported as 47000 nM, the “Cellular Assay IC50, rVEGF (50 ng/ml)” value (rat VEGF-A) is reported as 711000 nM and the “Cellular Assay IC50, mVEGF (50 ng/ml)” value (mVEGF) is reported as 169000 nM. It also gave an ELISA (hVEGF-A (8-109)) of 3.5 and a S/N (hVEGF-A (8-109)) of 51.9.

GCDVMQPYWGCGPDIDCLSNCICHWYNSCG (designed binder) [VEGF_CKP9.63.12.12] was tested, and the Cellular IC50 (human VEGF-A) was 0.56 nM, the fold improvement relative to variant 9.54.90 (cellular IC50) (human VEGF-A) was 2.41 fold and the Cellular IC50 (human VEGF-A; record 2) was 0.5 nM.

Work on GCASSNSIRQGWCKQDSDCLAGCVCGPKSNCG (designed binder) [LRP6_CKP10] yielded an ELISA [1] of 3.29 and a S/N [1] of 37.4.

In the case of GCNIMLPYWGCGRDFECMNQCICQYYQSCG (designed binder) [VEGF_CKP9.54.90.13.F8Y], the Cellular IC50 (human VEGF-A) is reported as 2.02 nM and the fold improvement relative to variant 9.54.90 (cellular IC50) (human VEGF-A) is reported as 0.67 fold.

Binder GCNIMLPFWGCGRDFECFINCICQYYQSCG (designed binder) [VEGF_CKP9.54.90.44] has a Cellular IC50 (human VEGF-A) of 1.16 nM and a fold improvement relative to variant 9.54.90 (cellular IC50) (human VEGF-A) of 1.16 fold.

In the case of GCRDLDVKWDCKQDSDCLAGCFCQYYSSCG (designed binder) [VEGF_CKP10], the “Cellular Assay IC50, hVEGF-A (25 ng/ml)” value (human VEGF-A) is reported as 45000 nM, the “Cellular Assay IC50, rVEGF (50 ng/ml)” value (rat VEGF-A) is reported as 18000 nM and the ELISA (hVEGF-A (8-109)) is reported as 3.2. It also gave a S/N (hVEGF-A (8-109)) of 43.7.

In the case of GCRSGNTIRKRECKQDSDCLAGCVCGGPGGCG (designed binder) [LRP6_CKP9], the ELISA [1] is reported as 2.97 and the S/N [1] is reported as 37.6.

GCSNYVKRCKQDSDCLAGCVCSPGGRCG (designed binder) [LRP6_CKP17] showed an ELISA [1] of 3.09 and a S/N [1] of 35.9.

GCENRTKGCKQDSDCLAGCVCGFRGTCG (designed binder) [LRP6_CKP20] was tested, and the ELISA [1] was 3.1 and the S/N [1] was 38.7.

Work on GCNIMLPFWGCGRDFECMEQCICQYYQSCG (designed binder) [VEGF_CKP9.54.90.67] yielded a Cellular IC50 (human VEGF-A) of 1.1 nM, a fold improvement relative to variant 9.54.90 (cellular IC50) (human VEGF-A) of 1.23 fold and a Cellular IC50 (human VEGF-A; record 2) of 1 nM.

GCRANRVSGRCKQDSDCLAGCVCGPNGFCG (designed binder) [LRP6_CKP18] showed an ELISA [1] of 1.67 and a S/N [1] of 18.3.

For GCMNHVKARRCKQDSDCLAGCVCGPNGFCG (designed binder) [LRP6_CKP3], the ELISA [1] was 2.93 and the S/N [1] was 40.2.

Binder CNIMLPYWGCGRDFECLAGCVCQYYQSC (designed binder) [VEGF_CKP9.54.90 F7Y Δ2G] has a Cellular IC50 (human VEGF-A) of 3.01 nM and a fold improvement relative to variant 9.54.90 (cellular IC50) (human VEGF-A) of 0.44 fold.

GCDVMQPYWGCEMDFDCLAGCVCHWYNSCGGI (designed binder) [9.63.44-7]: binds (hVEGF-A (8-109)).

GCDVMQPYWGCEMDFDCLAGCICHWYNSCGLQ (designed binder) [9.63.44-9]: binds (hVEGF-A (8-109)).

GCDVMQPYWGCEMDFDCLAGCVCHWYNSCGGI (designed binder) [9.63.44-10-A]: binds (hVEGF-A (8-109)).

GCDVMQPYWGCEMDFDCLAGCVCHWYNSCGPL (designed binder) [9.63.44-12]: binds (hVEGF-A (8-109)).

GCDVMQPYWGCEMDFDCLVGCVCHWYNSCGDE (designed binder) [9.63.44-10]: binds (hVEGF-A (8-109)).

GCDVMQPYWGCEMDFDCLAGCVCHWYNSCGQF (designed binder) [9.63.44-13]: binds (hVEGF-A (8-109)).
